In paper PMC314469, “Protein Interaction Networks by Proteome Peptide Scanning” (PLoS Biology, 2004) one finds normalised SPOT signal, Boehringer light units (BLU); mean over the file's lines of this peptide data, which are given here for 38 molecules.

The target of assay [1] is T1, amphyphisin SH3 (AMPH_HUMAN), P49418.
T1 chain: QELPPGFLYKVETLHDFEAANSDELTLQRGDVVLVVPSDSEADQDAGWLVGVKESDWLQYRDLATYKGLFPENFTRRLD
The assay is described as follows: SPOT array.

The target of assay [2] is endophilin SH3 (SH3G2_HUMAN), Q99962. Briefly: SPOT array.

B1: Q9HA07 306-319 (peptide)
chain: PKSVLKRPVTSEEL
As to B1, the normalised SPOT signal, Boehringer light units (BLU); mean over the file's lines of this peptide in assay [1] turned out to be 37.6; in assay [2], 48.9.

B2: Q14123 658-671 (peptide)
chain: PLRHFKRPAYASSS
Consider B2, for which the normalised SPOT signal, Boehringer light units (BLU); mean over the file's lines of this peptide in assay [1] came out at 28.7; in assay [2], 9.5.

B3: Q9Y2W2 415-429 (peptide)
chain: PPAPPLRPPGPPTG
Regarding B3, the normalised SPOT signal, Boehringer light units (BLU); mean over the file's lines of this peptide in assay [1] is 356; in assay [2], 3740.

B4: P53675 58-71 (peptide)
chain: PMAPIRRPISAESA
In the case of B4, the normalised SPOT signal, Boehringer light units (BLU); mean over the file's lines of this peptide in assay [1] amounted to 1010; in assay [2], 464.

B5: P52849 207-220 (peptide)
chain: PLLHLTRPSRLEPG
Consider B5, for which the normalised SPOT signal, Boehringer light units (BLU); mean over the file's lines of this peptide in assay [1] is 1780; in assay [2], 1220.

B6: Q96BU4 174-187 (peptide)
chain: PPAPLRRPLAVLHA
As to B6, the normalised SPOT signal, Boehringer light units (BLU); mean over the file's lines of this peptide in assay [1] was determined as 315; in assay [2], 453.

B7: Q96LW7 145-159 (peptide)
chain: ASAPPQRPPSGPEG
Consider B7, for which the results for the normalised SPOT signal, Boehringer light units (BLU); mean over the file's lines of this peptide in assay [1] and in assay [2] were 21.2 and 435, respectively.

B8: O95450 1177-1190 (peptide)
chain: PNLIPRRPSPYEKT
Regarding B8, the results for the normalised SPOT signal, Boehringer light units (BLU); mean over the file's lines of this peptide in assay [1] and in assay [2] were 131 and 398, respectively.

B9: Q9UEF7 3-16 (peptide)
chain: ASAPPRRPRPPPPS
Turning to B9, the figures for the normalised SPOT signal, Boehringer light units (BLU); mean over the file's lines of this peptide in assay [1] and in assay [2] were 230 and 9160, respectively.

B10: P11161 316-329 (peptide)
chain: PLRPILRPRKYPNR
With B10, the normalised SPOT signal, Boehringer light units (BLU); mean over the file's lines of this peptide in assay [1] amounted to 2100; in assay [2] it was 4850.

B11: Q9NVV2 32-45 (peptide)
chain: PHSAPLRPPRELHA
Consider B11, for which the normalised SPOT signal, Boehringer light units (BLU); mean over the file's lines of this peptide in assay [1] is 9310; in assay [2], 13000.

B12: Q9H6X0 119-132 (peptide)
chain: PLLPPKRPLSSSHE
Consider B12, for which the figures for the normalised SPOT signal, Boehringer light units (BLU); mean over the file's lines of this peptide in assay [1] and in assay [2] were 680 and 10400, respectively.

B13: Q9NRZ5 298-311 (peptide)
chain: PMVPPRRPWTLVNW
Turning to B13, the figures for the normalised SPOT signal, Boehringer light units (BLU); mean over the file's lines of this peptide in assay [1] and in assay [2] were 2870 and 648, respectively.

B14: AAH30815 33-47 (peptide)
chain: PPALPPKPPKPTTV
As for B14, the normalised SPOT signal, Boehringer light units (BLU); mean over the file's lines of this peptide in assay [1] came out at 77.9; in assay [2] it was 3470.

B15: Q9H3X8 431-444 (peptide)
chain: PLPAPRRPKVNSIL
As for B15, the normalised SPOT signal, Boehringer light units (BLU); mean over the file's lines of this peptide in assay [1] was 4680; in assay [2], 744.

B16: O60331 5-18 (peptide)
chain: ARVPLGRPRRRPRA
On to B16, for which the normalised SPOT signal, Boehringer light units (BLU); mean over the file's lines of this peptide was determined as 421 in assay [1] and 200 in assay [2].

B17: Q9ULW0 418-432 (peptide)
chain: PKKPPVKPPTEPIG
Regarding B17, the results for the normalised SPOT signal, Boehringer light units (BLU); mean over the file's lines of this peptide in assay [1] and in assay [2] were 37.6 and 64.2, respectively.

B18: O14545 178-191 (peptide)
chain: PMRLPRRPLRAFES
As for B18, the values for the normalised SPOT signal, Boehringer light units (BLU); mean over the file's lines of this peptide in assay [1] and in assay [2] were 5210 and 1200, respectively.

B19: Q9NPB9 231-244 (peptide)
chain: PNIKISRPLKVLLT
Turning to B19, the normalised SPOT signal, Boehringer light units (BLU); mean over the file's lines of this peptide in assay [1] is 91.3; in assay [2], 155.

B20: Q9H7J0 315-328 (peptide)
chain: PIQNIKRPYPGEVS
As for B20, the figures for the normalised SPOT signal, Boehringer light units (BLU); mean over the file's lines of this peptide in assay [1] and in assay [2] were 48.7 and 110, respectively.

B21: P56730 61-74 (peptide)
chain: PLPRFPRPPRALPA
With B21, the normalised SPOT signal, Boehringer light units (BLU); mean over the file's lines of this peptide in assay [1] came out at 1910; in assay [2], 3490.

B22: P35443 278-292 (peptide)
chain: PPAPPTRPPRRSDS
In the case of B22, the values for the normalised SPOT signal, Boehringer light units (BLU); mean over the file's lines of this peptide in assay [1] and in assay [2] were 20500 and 12100, respectively.

B23: O94991 899-912 (peptide)
chain: PNYDLRRPHQYLHP
Regarding B23, the figures for the normalised SPOT signal, Boehringer light units (BLU); mean over the file's lines of this peptide in assay [1] and in assay [2] were 24.6 and 0, respectively.

B24: Q9P2D6 185-198 (peptide)
chain: PLISFPRPVKTTWL
In the case of B24, the normalised SPOT signal, Boehringer light units (BLU); mean over the file's lines of this peptide in assay [1] turned out to be 201; in assay [2], 172.

B25: Q92569 33-47 (peptide)
chain: PPALPPKPPKPMTS
As for B25, the normalised SPOT signal, Boehringer light units (BLU); mean over the file's lines of this peptide stood at 88.3 in assay [1] and 2510 in assay [2].

B26: AAM49716 571-585 (peptide)
chain: PKISPQKPPRKDME
Take B26: the normalised SPOT signal, Boehringer light units (BLU); mean over the file's lines of this peptide in assay [1] turned out to be 2910; in assay [2] it was 487.

B27: O95822 14-28 (peptide)
chain: PLRLPPRPPGPRLA
In the case of B27, the results for the normalised SPOT signal, Boehringer light units (BLU); mean over the file's lines of this peptide in assay [1] and in assay [2] were 4940 and 18500, respectively.

B28: Q9Y6X6 669-683 (peptide)
chain: PNLLPHRPPLLVFP
On to B28, for which the normalised SPOT signal, Boehringer light units (BLU); mean over the file's lines of this peptide in assay [1] is 70.2; in assay [2], 191.

B29: O60543 29-42 (peptide)
chain: PLMHPARPFRVSNH
Consider B29, for which the normalised SPOT signal, Boehringer light units (BLU); mean over the file's lines of this peptide in assay [1] was determined as 8020; in assay [2], 15800.

B30: Q9HA84 52-65 (peptide)
chain: PKTPPRRPVPVADS
Turning to B30, the figures for the normalised SPOT signal, Boehringer light units (BLU); mean over the file's lines of this peptide in assay [1] and in assay [2] were 314 and 61.3, respectively.

B31: O00459 298-312 (peptide)
chain: PPALPPKPPKAKPA
As for B31, the normalised SPOT signal, Boehringer light units (BLU); mean over the file's lines of this peptide in assay [1] was 124; in assay [2], 4320.

B32: O00253 27-40 (peptide)
chain: PMEGIRRPDQALLP
For the molecule B32, the values for the normalised SPOT signal, Boehringer light units (BLU); mean over the file's lines of this peptide in assay [1] and in assay [2] were 36 and 66, respectively.

B33: Q92932 113-126 (peptide)
chain: PKTYLRRPEASSPA
With B33, the normalised SPOT signal, Boehringer light units (BLU); mean over the file's lines of this peptide in assay [1] amounted to 21.6; in assay [2], 60.7.

B34: Q9Y2Z7 47-60 (peptide)
chain: PISVLRRPGANHEG
Take B34: the normalised SPOT signal, Boehringer light units (BLU); mean over the file's lines of this peptide in assay [1] turned out to be 46.1; in assay [2] it was 90.8.

B35: Q14669 1006-1019 (peptide)
chain: PKRGPRRPKYSPPR
Regarding B35, the results for the normalised SPOT signal, Boehringer light units (BLU); mean over the file's lines of this peptide in assay [1] and in assay [2] were 12.1 and 83.3, respectively.

B36: Q9HCF2 2-15 (peptide)
chain: PNATPRRPLQELRR
As to B36, the normalised SPOT signal, Boehringer light units (BLU); mean over the file's lines of this peptide in assay [1] worked out at 405; in assay [2], 1570.

B37: O75698 245-258 (peptide)
chain: PKERLRRPETSGIS
Regarding B37, the normalised SPOT signal, Boehringer light units (BLU); mean over the file's lines of this peptide in assay [1] came out at 38.7; in assay [2], 32.6.

B38: Q99462 62-75 (peptide)
chain: PKDYPLRPPKMKFI
B38: the normalised SPOT signal, Boehringer light units (BLU); mean over the file's lines of this peptide was 81.5 in assay [1] and 1880 in assay [2].
